Assay [1] deals with T1, neonatal Fc receptor (FcRn) (human, UniProt P55899 24-365; P61769 21-119).
T1 construct: whole, on cells; also called human FcRn
As to the kind of experiment: FcRn occupancy assay, 'previous studies'.

For assay [2], the target named is T1, neonatal Fc receptor (FcRn). As to the kind of experiment: in vitro FcRn occupancy assay.
Assay [3] has the same target. Briefly: in vitro FcRn occupancy assay; reference implied to be two-armed TA-HEL-ABDEG.

Where only a bound is given, the exact number is not on record here.

T1 sequence (P55899 24-365 limits assumed, form in doubt, chain 1 of 2): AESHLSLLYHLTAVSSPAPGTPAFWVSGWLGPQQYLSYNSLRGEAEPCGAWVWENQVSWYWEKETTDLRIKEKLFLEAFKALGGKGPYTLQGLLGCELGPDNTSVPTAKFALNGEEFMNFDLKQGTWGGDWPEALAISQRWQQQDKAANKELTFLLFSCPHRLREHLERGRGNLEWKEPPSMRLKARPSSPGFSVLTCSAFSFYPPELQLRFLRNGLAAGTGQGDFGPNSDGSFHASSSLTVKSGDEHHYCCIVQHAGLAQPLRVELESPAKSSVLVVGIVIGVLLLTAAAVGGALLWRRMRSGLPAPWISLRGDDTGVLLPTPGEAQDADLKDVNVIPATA
T1 sequence (P61769 21-119 limits assumed, form in doubt, chain 2 of 2): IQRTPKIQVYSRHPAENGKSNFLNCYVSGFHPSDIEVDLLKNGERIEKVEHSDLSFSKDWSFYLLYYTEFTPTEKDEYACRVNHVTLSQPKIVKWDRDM

B1: mAb37-ABDEG (parental) (antibody)
chain 1: QVQLVQSGAEVMKPGSSVKVSCKASGYTFSWYHLEWVRQAPGHGLEWMGEIDPGTFTTNYNEKFKARVTFTADTSTSTAYMELSSLRSEDTAVYYCARFSHFSGSNHDYFDYWGQGTLVTVSSASTKGPSVFPLAPSSKSTSGGTAALGCLVKDYFPEPVTVSWNSGALTSGVHTFPAVLQSSGLYSLSSVVTVPSSSLGTQTYICNVNHKPSNTKVDKKVEPKSCDKTHTCPPCPAPELLGGPSVFLFPPKPKDTLYITREPEVTCVVVDVSHEDPEVKFNWYVDGVEVHNAKTKPREEQYNSTYRVVSVLTVLHQDWLNGKEYKCKVSNKALPAPIEKTISKAKGQPREPQVYTLPPSRDELTKNQVSLTCLVKGFYPSDIAVEWESNGQPENNYKTTPPVLDSDGSFFLYSKLTVDKSRWQQGNVFSCSVMHEALKFHYTQKSLSLSPG
chain 2: EIVMTQSPATLSVSPGERATLSCRASQSIGTNIHWYQQKPGQAPRLLIYYASESISGIPARFSGSGSGTEFTLTISSLQSEDFAVYYCQQSWSWPTTFGGGTKVEIKRTVAAPSVFIFPPSDEQLKSGTASVVCLLNNFYPREAKVQWKVDNALQSGNSQESVTEQDSKDSTYSLSSTLTLSKADYEKHKVYACEVTHQGLSSPVTKSFNRGEC
In turn, B1 yielded an IC50 in assay [1] of more than 100 nM.

B2: bivalent (TA) HEL-ABDEG (antibody, human IgG1, kappa)
heavy: QVQLQESGPGLVRPSQTLSLTCTVSGFSLTGYGVNWVRQPPGRGLEWIGMIWGDGNTDYNSALKSRVTMLKDTSKNQFSLRLSSVTAADTAVYYCARERDYRLDYWGQGSLVTVSSASTKGPSVFPLAPSSKSTSGGTAALGCLVKDYFPEPVTVSWNSGALTSGVHTFPAVLQSSGLYSLSSVVTVPSSSLGTQTYICNVNHKPSNTKVDKKVEPKSCDKTHTCPPCPAPELLGGPSVFLFPPKPKDTLYITREPEVTCVVVDVSHEDPEVKFNWYVDGVEVHNAKTKPREEQYNSTYRVVSVLTVLHQDWLNGKEYKCKVSNKALPAPIEKTISKAKGQPREPQVYTLPPSRDELTKNQVSLTCLVKGFYPSDIAVEWESNGQPENNYKTTPPVLDSDGSFFLYSKLTVDKSRWQQGNVFSCSVMHEALKFHYTQKSLSLSPGK
light: DIQMTQSPSSLSASVGDRVTITCRASGNIHNYLAWYQQKPGKAPKLLIYYTTTLADGVPSRFSGSGSGTDYTFTISSLQPEDIATYYCQHFWSTPRTFGQGTKVEIKRTVAAPSVFIFPPSDEQLKSGTASVVCLLNNFYPREAKVQWKVDNALQSGNSQESVTEQDSKDSTYSLSSTLTLSKADYEKHKVYACEVTHQGLSSPVTKSFNRGEC
notes: Two-armed anti-hen egg lysozyme antibody with an Fc-ABDEG region; Copies of 2 follow from 'bivalent (TA)'
For B2, 14 nM corresponded to half-maximal inhibition in assay [2] (IC50).

B3: one-armed (OA) HEL-ABDEG (antibody, human IgG1, kappa)
heavy: QVQLQESGPGLVRPSQTLSLTCTVSGFSLTGYGVNWVRQPPGRGLEWIGMIWGDGNTDYNSALKSRVTMLKDTSKNQFSLRLSSVTAADTAVYYCARERDYRLDYWGQGSLVTVSSASTKGPSVFPLAPSSKSTSGGTAALGCLVKDYFPEPVTVSWNSGALTSGVHTFPAVLQSSGLYSLSSVVTVPSSSLGTQTYICNVNHKPSNTKVDKKVEPKSCDKTHTCPPCPAPELLGGPSVFLFPPKPKDTLYITREPEVTCVVVDVSHEDPEVKFNWYVDGVEVHNAKTKPREEQYNSTYRVVSVLTVLHQDWLNGKEYKCKVSNKALPAPIEKTISKAKGQPREPQVYTLPPSRDELTKNQVSLWCLVKGFYPSDIAVEWESNGQPENNYKTTPPVLDSDGSFFLYSKLTVDKSRWQQGNVFSCSVMHEALKFHYTQKSLSLSPG
chain: DKTHTCPPCPAPELLGGPSVFLFPPKPKDTLYITREPEVTCVVVDVSHEDPEVKFNWYVDGVEVHNAKTKPREEQYNSTYRVVSVLTVLHQDWLNGKEYKCKVSNKALPAPIEKTISKAKGQPREPQVYTLPPSRDELTKNQVSLSCAVKGFYPSDIAVEWESNGQPENNYKTTPPVLDSDGSFFLVSKLTVDKSRWQQGNVFSCSVMHEALKFHYTQKSLSLSPG
light: B2 light
notes: One anti-HEL Fab joined by a natural IgG1 hinge to the N-terminus of Fc-ABDEG; The Fc is a knob-into-hole heterodimer
On to B3, for which, in assay [2], 7 nM corresponded to half-maximal inhibition (IC50). Also, the “fold improvement in FcRn occupancy” value in assay [3] worked out at 2 fold.

B4: efgartigimod (other)
chain: DKTHTCPPCPAPELLGGPSVFLFPPKPKDTLYITREPEVTCVVVDVSHEDPEVKFNWYVDGVEVHNAKTKPREEQYNSTYRVVSVLTVLHQDWLNGKEYKCKVSNKALPAPIEKTISKAKGQPREPQVYTLPPSRDELTKNQVSLTCLVKGFYPSDIAVEWESNGQPENNYKTTPPVLDSDGSFFLYSKLTVDKSRWQQGNVFSCSVMHEALKFHYTQKSLSLSPGK
B4 gave an IC50 in assay [2] of 6 nM.

The values above are taken from patent publication US20250122288A1 (ARGENX, published 2025).
